Measurements: paper PMC6420652 (2019)

B1: Clover-AZIN (antizyme inhibitor with an N-terminal Clover tag) [human] / antizyme-mRuby2 (antizyme with a C-terminal mRuby2 tag) [human] (parent complex)
chain 1: MKGFIDDANYSVGLLDEGTNLGNVIDNYVYEHTLTGKNAFFVGDLGKIVKKHSQWQNVVAQIKPFYTVKCNSAPAVLEILAALGTGFACSSKNEMALVQELGVPPENIIYISPCKQVSQIKYAAKVGVNILTCDNEIELKKIARNHPNAKVLLHIATEDNIGGEEGNMKFGTTLKNCRHLLECAKELDVQIIGVKFHVSSACKESQVYVHALSDARCVFDMAGEIGFTMNMLDIGGGFTGTEFQLEEVNHVISPLLDIYFPEGSGVKIISEPGSYYVSSAFTLAVNIIAKKVVENDKFPSGVEKTGSDEPAFMYYMNDGVYGSFASKLSEDLNTIPEVHKKYKEDEPLFTSSLWGPSCDELDQIVESCLLPELNVGDWLIFDNMGADSFHEPSAFNDFQRPAIYYMMSFSDWYEMQDAGITSDSMMKNFFFVPSCIQLSQEDSFSAEA
chain 2: not shown

Variants of: B1
Test: FRET titration; parent: 24 nM; read off a plot

Point of comparison: chain 1 K175A, Kd ~30 nM. Against it:
- chain 1 L328A — within 1.5-fold, ~26 nM
- chain 1 D214A — within 1.5-fold, ~27 nM
- chain 1 Q119A — 3.1-fold lower, ~9.6 nM
- chain 1 S329A — within 1.5-fold, ~24 nM
- chain 1 Y321A — within 1.5-fold, ~27 nM
- chain 1 E366A — within 1.5-fold, ~31 nM
- chain 1 Q116A — within 1.5-fold, ~21 nM
- chain 1 K92A — within 1.5-fold, ~25 nM
- chain 1 L139A — 3.2-fold lower, ~9.3 nM
- chain 1 E136A — 1.5-fold lower, ~20 nM
- chain 1 S367A — within 1.5-fold, ~39 nM
- chain 1 K115A — within 1.5-fold, ~23 nM
- chain 1 N396A — 1.6-fold higher, ~47 nM
- chain 1 C114A — within 1.5-fold, ~28 nM
- chain 1 E391A — 2.5-fold lower, ~12 nM
- chain 1 L361A — 1.8-fold higher, ~55 nM
- chain 1 E138A — 1.5-fold lower, ~20 nM
- chain 1 F170A — within 1.5-fold, ~27 nM
- chain 1 S91A — within 1.5-fold, ~26 nM
- chain 1 K141A — 1.6-fold lower, ~19 nM
- chain 1 K169A — within 1.5-fold, ~21 nM
- chain 1 M168A — within 1.5-fold, ~21 nM
- chain 1 F395A — 1.9-fold higher, ~58 nM
- chain 1 S393A — within 1.5-fold, ~25 nM
- chain 1 F398A — within 1.5-fold, ~23 nM
- chain 1 K69A — within 1.5-fold, ~21 nM
- chain 1 D359A — within 1.5-fold, ~41 nM
- chain 1 N93A — within 1.5-fold, ~35 nM
- chain 1 R144A — 3-fold lower, ~10 nM
- chain 1 K63A — within 1.5-fold, ~23 nM
- chain 1 D423A — within 1.5-fold, ~23 nM
- chain 1 D134A — 1.7-fold lower, ~18 nM
- chain 1 S118A — 2-fold lower, ~15 nM

Variants of: B1
Test: FRET titration; Clover-containing proteins 50 nM; titration of AZ-mRuby2; parent: 22.2 nM

chain 1 S329Y was tested, and the Kd was 28.6 nM.
